Measured values from the supplement of paper PMC5998384.

How the values were obtained:
HeLa Kyoto [1] = experiment: solubility in G1/S (NP-40 vs SDS abundance) (log2 ratio); higher = more soluble; settings: cell cycle stage: G1/S
HeLa Kyoto [2] = experiment: thermal stability score vs G1/S (z-score of summed log2 fold changes over temperatures); higher = more thermally stable than in G1/S
HeLa Kyoto [3] = experiment: solubility change mitosis vs G1/S (difference of NP-40 vs SDS log2 ratios) (log2 ratio difference); higher = more soluble in mitosis
HeLa Kyoto [4] = experiment: melting temperature (median over replicates), in situ; higher = more thermally stable
[5] = cell cycle stage: early G1 (4.5 h after nocodazole release)
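Wherever melting temperature (median over replicates), in situ is given: HeLa Kyoto cells synchronized by double thymidine or nocodazole block, proteins quantified by TMT10plex mass spectrometry, three independent biological replicates.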
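Wherever solubility change mitosis vs G1/S (difference of NP-40 vs SDS log2 ratios) is given: synchronized HeLa Kyoto cells (double thymidine block for G1/S, nocodazole release for mitosis), protein amounts in NP-40 versus SDS lysates quantified by mass spectrometry, three biological replicates.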
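Wherever solubility in G1/S (NP-40 vs SDS abundance) is given: HeLa Kyoto cells arrested at G1/S by double thymidine block, proteins quantified by TMT10plex mass spectrometry in mild NP-40 versus SDS extracts, three biological replicates.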
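Wherever thermal stability score vs G1/S (z-score of summed log2 fold changes over temperatures) is given: synchronized HeLa Kyoto cells, proteins quantified by TMT10plex mass spectrometry, three biological replicates, mitosis taken 0.5 h after nocodazole release, G1/S directly after double thymidine block.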

Row | Sequence | solubility in G1/S (log2) (HeLa Kyoto [1]) | thermal stability score (HeLa Kyoto [2]; [5]) | thermal stability score (HeLa Kyoto [2]; cell cycle stage: mitosis) | solubility change mitosis (log2) (HeLa Kyoto [3]) | melting temperature (HeLa Kyoto [4]; cell cycle stage: G1/S) | melting temperature (HeLa Kyoto [4]; cell cycle stage: mitosis)
1 | MSLSDWHLAVKLADQPLTPKSILRLPETELGEYSLGGYSISFLKQLIAGKLQESVPDPELIDLIYCGRKLKDDQTLDFYGIQPGSTVHVLRKSWPEPDQKPEPVDKVAAMREFRVLHTALHSSSSYREAVFKMLSNKESLDQIIVATPGLSSDPIALGVLQDKDLFSVFADPNMLDTLVPAHPALVNAIVLVLHSVAGSAPMPGTDSSSRSMPSSSYRDMPGGFLFEGLSDDEDDFHPNTRSTPSSSTPSSRPASLGYSGAAGPRPITQSELATALALASTPESSSHTPTPGTQGHSSGTSPMSSGVQSGTPITNDLFSQALQHALQASGQPSLQSQWQPQLQQLRDMGIQDDELSLRALQATGGDIQAALELIFAGGAP [UBL7] | 0.396 | -0.52 | -0.245 | 0.156 | 50.8 °C | 50.8 °C
2 | MSLSHLYRDGEGRIDDDDDERENFEITDWDLQNEFNPNRQRHWQTKEEATYGVWAERDSDDERPSFGGKRARDYSAPVNFISAGLKKGAAEEAELEDSDDEEKPVKQDDFPKDFGPRKLKTGGNFKPSQKGFAGGTKSFMDFGSWERHTKGIGQKLLQKMGYVPGRGLGKNAQGIINPIEAKQRKGKGAVGAYGSERTTQSMQDFPVVDSEEEAEEEFQKELSQWRKDPSGSKKKPKYSYKTVEELKAKGRISKKLTAPQKELSQVKVIDMTGREQKVYYSYSQISHKHNVPDDGLPLQSQQLPQSGKEAKAPGFALPELEHNLQLLIDLTEQEIIQNDRQLQYERDMVVNLFHELEKMTEVLDHEERVISNLSKVLEMVEECERRMQPDCSNPLTLDECARIFETLQDKYYEEYRMSDRVDLAVAIVYPLMKEYFKEWDPLKDCTYGTEIISKWKSLLENDQLLSHGGQDLSADAFHRLIWEVWMPFVRNIVTQWQPRNCDPMVDFLDSWVHIIPVWILDNILDQLIFPKLQKEVENWNPLTDTVPIHSWIHPWLPLMQARLEPLYSPIRSKLSSALQKWHPSDSSAKLILQPWKDVFTPGSWEAFMVKNIVPKLGMCLGELVINPHQQHMDAFYWVIDWEGMISVSSLVGLLEKHFFPKWLQVLCSWLSNSPNYEEITKWYLGWKSMFSDQVLAHPSVKDKFNEALDIMNRAVSSNVGAYMQPGARENIAYLTHTERRKDFQYEAMQERREAENMAQRGIGVAASSVPMNFKDLIETKAEEHNIVFMPVIGKRHEGKQLYTFGRIVIYIDRGVVFVQGEKTWVPTSLQSLIDMAK [TFIP11] | -0.472 | 0.21 | 1.2 | 0.115 | 48.4 °C | 48.9 °C
3 | MSLSNKLTLDKLDVKGKRVVMRVDFNVPMKNNQITNNQRIKAAVPSIKFCLDNGAKSVVLMSHLGRPDGVPMPDKYSLEPVAVELKSLLGKDVLFLKDCVGPEVEKACANPAAGSVILLENLRFHVEEEGKGKDASGNKVKAEPAKIEAFRASLSKLGDVYVNDAFGTAHRAHSSMVGVNLPQKAGGFLMKKELNYFAKALESPERPFLAILGGAKVADKIQLINNMLDKVNEMIIGGGMAFTFLKVLNNMEIGTSLFDEEGAKIVKDLMSKAEKNGVKITLPVDFVTADKFDENAKTGQATVASGIPAGWMGLDCGPESSKKYAEAVTRAKQIVWNGPVGVFEWEAFARGTKALMDEVVKATSRGCITIIGGGDTATCCAKWNTEDKVSHVSTGGGASLELLEGKVLPGVDALSNI [PGK1] | 0.376 | 1.07 | 0.993 | -0.0583 | 53.8 °C | 53.9 °C
4 | MSLTSSSSVRVEWIAAVTIAAGTAAIGYLAYKRFYVKDHRNKAMINLHIQKDNPKIVHAFDMEDLGDKAVYCRCWRSKKFPFCDGAHTKHNEETGDNVGPLIIKKKET [CISD1] | 0.633 | -0.277 | -1.59 | 0.0262 | 57.1 °C | 55.3 °C
5 | MSLVAYASSDESEPDEAEPEPEEEEAVAPTSGPALGGLFASLPAPKGPALLPPPPQMLAPAFPPPLLLPPPTGDPRLQPPPPLPFGLGGFPPPPGVSPAEAAGVGEGLGLGLPSPRGPGLNLPPPIGGAGPPLGLPKPKKRKEPVKIAAPELHKGDSDSEEDEPTKKKTILQGSSEGTGLSALLPQPKNLTVKETNRLLLPHAFSRKPSDGSPDTKPSRLASKTKTSSLAPVVGTTTTTPSPSAIKAAAKSAALQVTKQITQEEDDSDEEVAPENFFSLPEKAEPPGVEPYPYPIPTVPEELPPGTEPEPAFQDDAANAPLEFKMAAGSSGAPWMPKPGDDYSYNQFSTYGDANAAGAYYQDYYSGGYYPAQDPALVPPQEIAPDASFIDDEAFKRLQGKRNRGREEINFVEIKGDDQLSGAQQWMTKSLTEEKTMKSFSKKKGEQPTGQQRRKHQITYLIHQAKERELELKNTWSENKLSRRQTQAKYGF [PRCC] | 0.46 | -2.8 | -0.438 | -0.00665 | 53.2 °C | 53.8 °C
6 | MSMEDYDFLFKIVLIGNAGVGKTCLVRRFTQGLFPPGQGATIGVDFMIKTVEINGEKVKLQIWDTAGQERFRSITQSYYRSANALILTYDITCEESFRCLPEWLREIEQYASNKVITVLVGNKIDLAERREVSQQRAEEFSEAQDMYYLETSAKESDNVEKLFLDLACRLISEARQNTLVNNVSSPLPGEGKSISYLTCCNFN [RAB30] | -0.379 | 0.727 | 1.4 | -0.0812 | 51.3 °C | 51.7 °C
